Measurements taken from PMC9482650, “Quantitative fragmentomics allow affinity mapping of interactomes” (Nature Communications, 2022).

T1: APBA3_1, O96018
T1 sequence (O96018 389-490, limits assumed, looked up): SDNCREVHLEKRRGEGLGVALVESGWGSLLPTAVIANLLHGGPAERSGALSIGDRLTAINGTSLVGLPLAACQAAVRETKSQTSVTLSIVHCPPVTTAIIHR

T2: PDZD7_3, Q9H5P4
T2 sequence (Q9H5P4 857-944, limits assumed, looked up): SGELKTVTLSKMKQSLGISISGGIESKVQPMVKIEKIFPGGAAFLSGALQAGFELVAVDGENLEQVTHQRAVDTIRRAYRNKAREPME

T3: DFNB31_1, Q9P202
T3 sequence (Q9P202 135-233, limits assumed, looked up): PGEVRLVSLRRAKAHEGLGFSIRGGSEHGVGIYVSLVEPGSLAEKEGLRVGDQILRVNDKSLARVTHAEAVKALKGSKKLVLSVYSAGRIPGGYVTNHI

T4: APBA1_2, Q02410
T4 sequence (Q02410 742-832, limits assumed, looked up): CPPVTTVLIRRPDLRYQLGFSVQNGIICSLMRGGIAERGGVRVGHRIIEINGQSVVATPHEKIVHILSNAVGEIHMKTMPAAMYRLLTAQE

T5: DFNB31_3, Q9P202
T5 sequence (Q9P202 811-907, limits assumed, looked up): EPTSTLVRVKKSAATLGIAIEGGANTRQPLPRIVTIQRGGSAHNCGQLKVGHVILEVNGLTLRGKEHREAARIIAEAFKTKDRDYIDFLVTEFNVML

T6: PTPN13_1, Q12923
T6 sequence (Q12923 1088-1188, limits assumed, looked up): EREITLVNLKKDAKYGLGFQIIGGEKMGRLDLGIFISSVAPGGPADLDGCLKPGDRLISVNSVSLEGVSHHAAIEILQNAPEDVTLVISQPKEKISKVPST

T7: MPDZ_12, O75970
T7 sequence (O75970 1857-1958, limits assumed, looked up): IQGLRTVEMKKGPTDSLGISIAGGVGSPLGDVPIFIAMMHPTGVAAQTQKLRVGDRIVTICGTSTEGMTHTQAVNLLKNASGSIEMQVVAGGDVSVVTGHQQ

T8: MPP6, Q9NZW5
T8 sequence (Q9NZW5 125-219, limits assumed, looked up): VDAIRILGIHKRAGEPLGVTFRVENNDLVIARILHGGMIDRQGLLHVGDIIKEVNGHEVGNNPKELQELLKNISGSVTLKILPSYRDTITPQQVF

T9: GRIP1_3, Q9Y3R0
T9 sequence (Q9Y3R0 247-346, limits assumed, looked up): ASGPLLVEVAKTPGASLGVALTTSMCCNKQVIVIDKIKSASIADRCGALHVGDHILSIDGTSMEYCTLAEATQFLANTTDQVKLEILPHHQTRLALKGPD

T10: SHANK1, Q9Y566
T10 sequence (Q9Y566 658-767, limits assumed, looked up): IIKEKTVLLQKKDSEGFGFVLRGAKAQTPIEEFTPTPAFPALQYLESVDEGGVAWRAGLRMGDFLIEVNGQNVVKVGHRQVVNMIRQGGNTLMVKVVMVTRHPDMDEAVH

T11: SYNJ2BP, P57105
T11 sequence (P57105 8-110, limits assumed, looked up): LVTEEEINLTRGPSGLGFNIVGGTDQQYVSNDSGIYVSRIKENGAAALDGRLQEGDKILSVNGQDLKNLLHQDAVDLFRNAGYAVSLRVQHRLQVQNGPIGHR

T12: GRIP1_7, Q9Y3R0
T12 sequence (Q9Y3R0 999-1096, limits assumed, looked up): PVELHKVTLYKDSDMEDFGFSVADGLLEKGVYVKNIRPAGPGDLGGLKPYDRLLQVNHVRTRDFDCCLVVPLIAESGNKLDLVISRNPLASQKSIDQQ


How the values were obtained:
Assay in all cases: holdup assay
Set-up in all cases: key: below the threshold = too weak to quantify, mostly under pKd 3.1 to 4
Settings in all cases: plain residues with an end cap or a label only (N-terminal biotin on a linker: ado-ado)
APBA3_1, O96018 = biological target: T1, APBA3_1, O96018
PDZD7_3, Q9H5P4 = biological target: T2, PDZD7_3, Q9H5P4
GRID2IP_1, A4D2P6 = biological target: GRID2IP_1, A4D2P6
Sequence of GRID2IP_1, A4D2P6 (A4D2P6 1-87): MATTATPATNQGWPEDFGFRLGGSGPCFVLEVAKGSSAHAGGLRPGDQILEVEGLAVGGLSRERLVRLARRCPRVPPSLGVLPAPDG

DLG4_3, P78352 = biological target: DLG4_3, P78352
Sequence of DLG4_3, P78352 (P78352 306-403): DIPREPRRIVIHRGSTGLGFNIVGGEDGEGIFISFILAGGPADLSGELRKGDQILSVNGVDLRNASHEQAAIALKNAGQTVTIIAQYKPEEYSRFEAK

GRID2IP_2, A4D2P6 = biological target: GRID2IP_2, A4D2P6
Sequence of GRID2IP_2, A4D2P6 (A4D2P6 272-370): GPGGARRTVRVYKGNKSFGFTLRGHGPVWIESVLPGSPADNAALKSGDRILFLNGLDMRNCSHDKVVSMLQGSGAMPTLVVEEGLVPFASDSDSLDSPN

DLG5_1, Q8TDM6 = biological target: DLG5_1, Q8TDM6
Sequence of DLG5_1, Q8TDM6 (Q8TDM6 617-713): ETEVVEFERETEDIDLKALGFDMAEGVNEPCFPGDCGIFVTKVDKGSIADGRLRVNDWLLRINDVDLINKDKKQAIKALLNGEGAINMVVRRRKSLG

DFNB31_1, Q9P202 = biological target: T3, DFNB31_1, Q9P202
AHNAK1, Q09666 = biological target: AHNAK1, Q09666
Sequence of AHNAK1, Q09666 (Q09666 4-100): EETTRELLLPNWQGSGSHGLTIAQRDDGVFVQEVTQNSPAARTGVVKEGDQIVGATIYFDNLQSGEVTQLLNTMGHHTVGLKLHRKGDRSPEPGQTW

NHERF2_2, Q15599 = biological target: NHERF2_2, Q15599
Sequence of NHERF2_2, Q15599 (Q15599 142-238): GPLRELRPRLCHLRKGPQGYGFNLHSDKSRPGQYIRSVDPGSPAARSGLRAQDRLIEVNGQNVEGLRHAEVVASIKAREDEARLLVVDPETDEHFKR

APBA1_2, Q02410 = biological target: T4, APBA1_2, Q02410
DFNB31_3, Q9P202 = biological target: T5, DFNB31_3, Q9P202
PTPN13_1, Q12923 = biological target: T6, PTPN13_1, Q12923
DLG4_2, P78352 = biological target: DLG4_2, P78352
Sequence of DLG4_2, P78352 (P78352 155-259): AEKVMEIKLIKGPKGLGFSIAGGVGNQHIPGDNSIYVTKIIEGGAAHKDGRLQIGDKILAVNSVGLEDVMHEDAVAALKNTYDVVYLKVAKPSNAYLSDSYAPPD

MPDZ_12, O75970 = biological target: T7, MPDZ_12, O75970
TJP1_3, Q07157 = biological target: TJP1_3, Q07157
Sequence of TJP1_3, Q07157 (Q07157 416-512): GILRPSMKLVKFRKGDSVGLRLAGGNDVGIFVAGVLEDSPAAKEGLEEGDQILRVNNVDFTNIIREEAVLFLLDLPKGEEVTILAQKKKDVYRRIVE

MPP6, Q9NZW5 = biological target: T8, MPP6, Q9NZW5
GRIP1_3, Q9Y3R0 = biological target: T9, GRIP1_3, Q9Y3R0
SHANK1, Q9Y566 = biological target: T10, SHANK1, Q9Y566
FRMPD2_3, Q68DX3 = biological target: FRMPD2_3, Q68DX3
Sequence of FRMPD2_3, Q68DX3 (Q68DX3 1073-1166): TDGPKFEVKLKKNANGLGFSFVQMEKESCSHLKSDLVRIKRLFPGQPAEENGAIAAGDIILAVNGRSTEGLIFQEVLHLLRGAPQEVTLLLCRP

PDZRN4_1, Q6ZMN7 = biological target: PDZRN4_1, Q6ZMN7
Sequence of PDZRN4_1, Q6ZMN7 (Q6ZMN7 213-318): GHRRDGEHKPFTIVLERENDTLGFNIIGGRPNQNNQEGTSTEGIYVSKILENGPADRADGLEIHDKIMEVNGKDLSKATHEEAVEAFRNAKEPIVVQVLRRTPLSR

DLG1_1, Q12959 = biological target: DLG1_1, Q12959
SYNJ2BP, P57105 = biological target: T11, SYNJ2BP, P57105
MAGI1_2, Q96QZ7 = biological target: MAGI1_2, Q96QZ7
Sequence of MAGI1_2, Q96QZ7 (Q96QZ7 456-580): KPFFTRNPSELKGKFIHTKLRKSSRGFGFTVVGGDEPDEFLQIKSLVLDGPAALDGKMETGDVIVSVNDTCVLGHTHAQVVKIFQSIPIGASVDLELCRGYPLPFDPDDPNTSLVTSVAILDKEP

MAGI1_1, Q96QZ7 = biological target: MAGI1_1, Q96QZ7
Sequence of MAGI1_1, Q96QZ7 (Q96QZ7 1-106): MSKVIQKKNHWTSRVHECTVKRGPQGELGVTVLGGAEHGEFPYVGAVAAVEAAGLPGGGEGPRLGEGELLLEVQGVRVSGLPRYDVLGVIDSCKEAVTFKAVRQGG

GRIP1_7, Q9Y3R0 = biological target: T12, GRIP1_7, Q9Y3R0
Inadl_8, Q8NI35 = biological target: Inadl_8, Q8NI35
Sequence of Inadl_8, Q8NI35 (Q8NI35 1425-1530): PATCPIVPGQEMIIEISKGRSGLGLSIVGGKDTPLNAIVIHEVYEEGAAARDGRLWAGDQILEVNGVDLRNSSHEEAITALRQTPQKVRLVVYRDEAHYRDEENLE

| Binder | pKd (APBA3_1, O96018) | pKd (PDZD7_3, Q9H5P4) | pKd (GRID2IP_1, A4D2P6) | pKd (DLG4_3, P78352) | pKd (GRID2IP_2, A4D2P6) | pKd (DLG5_1, Q8TDM6) | pKd (DFNB31_1, Q9P202) | pKd (AHNAK1, Q09666) | pKd (NHERF2_2, Q15599) | pKd (APBA1_2, Q02410) | pKd (DFNB31_3, Q9P202) | pKd (PTPN13_1, Q12923) | pKd (DLG4_2, P78352) | pKd (MPDZ_12, O75970) | pKd (TJP1_3, Q07157) | pKd (MPP6, Q9NZW5) | pKd (GRIP1_3, Q9Y3R0) | pKd (SHANK1, Q9Y566) | pKd (FRMPD2_3, Q68DX3) | pKd (PDZRN4_1, Q6ZMN7) | further results |
| --- | --- | --- | --- | --- | --- | --- | --- | --- | --- | --- | --- | --- | --- | --- | --- | --- | --- | --- | --- | --- | --- |
| AHGSTRDQSI [KCNB1, Q14721] | below the threshold | 3.67 | below the threshold | below the threshold | below the threshold | 4.06 | below the threshold | below the threshold | below the threshold | below the threshold | 3.77 | below the threshold | 4.09 | 3.62 | 3.48 | below the threshold | below the threshold | 3.78 | below the threshold | below the threshold | pKd (DLG1_1, Q12959): below the threshold; pKd (SYNJ2BP, P57105): below the threshold; pKd (MAGI1_2, Q96QZ7): below the threshold; pKd (MAGI1_1, Q96QZ7): below the threshold; pKd (GRIP1_7, Q9Y3R0): 3.48; pKd (Inadl_8, Q8NI35): below the threshold |
| PALKNGQYWV [CSPG4, Q6UVK1] | below the threshold | below the threshold | below the threshold | below the threshold | 3.75 | below the threshold | below the threshold | below the threshold | below the threshold | 4.67 | below the threshold | below the threshold | below the threshold | 3.61 | 3.95 | 3.83 | below the threshold | below the threshold | below the threshold | below the threshold | pKd (DLG1_1, Q12959): below the threshold; pKd (SYNJ2BP, P57105): below the threshold; pKd (MAGI1_2, Q96QZ7): below the threshold; pKd (MAGI1_1, Q96QZ7): below the threshold; pKd (GRIP1_7, Q9Y3R0): 5.63; pKd (Inadl_8, Q8NI35): 3.5 |
| YAEKRMLTEV [KCNA6, P17658] | below the threshold | 4.95 | below the threshold | 3.74 | 3.72 | below the threshold | below the threshold | below the threshold | below the threshold | 3.72 | 4.15 | below the threshold | 4.23 | 3.55 | below the threshold | 3.54 | below the threshold | below the threshold | below the threshold | below the threshold | pKd (DLG1_1, Q12959): 3.91; pKd (SYNJ2BP, P57105): 4.05; pKd (MAGI1_2, Q96QZ7): 4.54; pKd (MAGI1_1, Q96QZ7): below the threshold; pKd (GRIP1_7, Q9Y3R0): below the threshold; pKd (Inadl_8, Q8NI35): below the threshold |
| PEKVSNTTVV [IGSF5, Q9NSI5] | below the threshold | 4.66 | below the threshold | below the threshold | below the threshold | below the threshold | below the threshold | below the threshold | below the threshold | 3.51 | 3.83 | below the threshold | 4.49 | below the threshold | below the threshold | below the threshold | below the threshold | below the threshold | below the threshold | below the threshold | pKd (DLG1_1, Q12959): 4.25; pKd (SYNJ2BP, P57105): 3.51; pKd (MAGI1_2, Q96QZ7): 3.54; pKd (MAGI1_1, Q96QZ7): below the threshold; pKd (GRIP1_7, Q9Y3R0): below the threshold; pKd (Inadl_8, Q8NI35): below the threshold |
| FLVTEFNVML [DFNB31, Q9P202] | below the threshold | 4.47 | below the threshold | below the threshold | below the threshold | below the threshold | below the threshold | below the threshold | 4.04 | 3.84 | below the threshold | below the threshold | below the threshold | below the threshold | below the threshold | below the threshold | below the threshold | 3.84 | below the threshold | below the threshold | pKd (DLG1_1, Q12959): below the threshold; pKd (SYNJ2BP, P57105): below the threshold; pKd (MAGI1_2, Q96QZ7): below the threshold; pKd (MAGI1_1, Q96QZ7): below the threshold; pKd (GRIP1_7, Q9Y3R0): below the threshold; pKd (Inadl_8, Q8NI35): below the threshold |
